± gives the half width of the 95% confidence interval.
Tests used:
[1] = folding stability dG unfold (combined trypsin and chymotrypsin); higher = more stable
Method in brief: (§1)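 Sequencing followed digestion of designed mini-proteins with trypsin and chymotrypsin, each at 11 concentrations in threefold dilutions together with a no-protease condition. The mini-proteins were under 80 residues, had no cysteine, sat in a PA-tagged cDNA display construct, and were kept only if AlphaFold2 dimer inter-PAE was above 15. From the counts, Bayesian fitting gave K50, and unfolding free energy was derived against a sequence-predicted unfolded-state K50 and a shared folded-state K50, per protease or combined.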

[2] = folding stability dG unfold from chymotrypsin proteolysis; higher = more stable
Method in brief: as §1

[3] = folding stability dG unfold from trypsin proteolysis; higher = more stable
Method in brief: as §1

Row | Sequence | folding stability dG unfold [1] | folding stability dG unfold [2] | folding stability dG unfold [3]
1 | SAGGSAGGSIVFRSPEQAKEWLDNFPPGNEVNIHVQGPDTGQPQEFEIKIPPPKPEYDPDGKPSAGGSAGGS [r12_393_TrROS] | -0.169 ± 0.32 kcal/mol | -0.773 ± 0.54 kcal/mol | -0.124 ± 0.088 kcal/mol
2 | SAGGLLPLLKEIAEALGLPEIESLSFDPETGELTLRFRGPEPYLLRIPFRPVKDGGIPLDIEVYPTDLSAGG [r13_410_TrMRF] | 3.02 ± 0.056 kcal/mol | 3.006 ± 0.03 kcal/mol | 2.86 ± 0.06 kcal/mol
3 | SIEEIADTLQKLGLNVNIDDIELEPNPDGRFRIQVQVSGEPIRQVEVPPPPPPPPEEEVRDPDGKEHKVRSA [r9_442_TrROS] | -0.404 ± 0.33 kcal/mol | -0.281 ± 0.26 kcal/mol | -0.188 ± 0.086 kcal/mol
4 | SAGGSADIARKIAKWLAEMYGIEEIKVKDIDPNGYIKVEIKMRMYDDGEPVEHKMDIEIPIPPGDLSAGGSA [r15_646_TrROS] | 1.98 ± 0.081 kcal/mol | 2.3 ± 0.031 kcal/mol | 1.3 ± 0.035 kcal/mol
5 | SAGGPVLRLSFPTRTPDGELVRVEVVYDPETGALLVRVYSLTRPNRAVLYLVDPENPLTVLRAEELPLSAGG [r13_400_TrMRF] | 2.82 ± 0.18 kcal/mol | 3.01 ± 0.071 kcal/mol | 2.47 ± 0.11 kcal/mol
6 | SMLEEVLERIEAMPPGSVVKVTLTFPDGTKRTETLKLSAEEVKEKLEKIKKENPDIKIEVKVEVYSTEEESA [r9_37_JUSTAS] | 4.39 ± 0.42 kcal/mol | 4.05 ± 0.36 kcal/mol | 3.33 ± 0.39 kcal/mol
7 | DIDIETHPNGTILIKVPRNLLDEIKDILKENGYNVKITGIDPDWGYIRFPLKPVPPPPPKPSPEDAEEQGDS [r1_78_TrROS] | 1.89 ± 0.14 kcal/mol | 2.14 ± 0.041 kcal/mol | 1.76 ± 0.082 kcal/mol
8 | SAGGSAGGSVKVYTIEFLGDGKPYLLSIDDNGNFVIYVPNPKNIDAVKKAIPSNYKIVEIKPLSAGGSAGGS [r12_9_TrMRF] | 1.52 ± 0.17 kcal/mol | 2.01 ± 0.13 kcal/mol | 0.989 ± 0.036 kcal/mol
9 | SAMTVTSSVTTQPVPDSSDTVTYTNITVTIGNQTVTYTETVTYSSTDPTLRTVTTLLPDGTTVTTTVPVGSA [r9_897_JUSTAS] | 2.18 ± 0.13 kcal/mol | 2.6 ± 0.084 kcal/mol | 1.94 ± 0.1 kcal/mol
10 | SAGGSAGGSAPPPPPPVYRIPIEITEIDPNGKITVTLPDLGEEITFPAPNVEVIPGDEFYIPSAGGSAGGSA [r18_89_TrROS] | 1.86 ± 0.16 kcal/mol | 1.67 ± 0.045 kcal/mol | 1.95 ± 0.11 kcal/mol
11 | SAGGSAGGSAGGWDEIKDILREAGWPVKNVEVQWIPNPENGKPMNSITVSYPDGKKWTIMSAGGSAGGSAGG [r7_337_TrROS] | 0.0642 ± 0.098 kcal/mol | 0.0542 ± 0.19 kcal/mol | -0.195 ± 0.13 kcal/mol
12 | SAHTWEIWFPPGLTPEEIQEKLKEEFPGYEIDVDVERDPEPGWYRIEVTMKDPQQRRRVQKKIREILQESAG [r14_443_TrROS] | 2.4 ± 0.14 kcal/mol | 2.39 ± 0.048 kcal/mol | 2.34 ± 0.12 kcal/mol
13 | SAGGSMKVKIEVEKTPKGYKVRITVEKDGKTYEFEFPEDMSLEEVLEKLKKELEKEGVEIEKIEIVSAGGSA [r2_497_TrROS_Hall] | 4.43 ± 0.26 kcal/mol | 4.58 ± 0.15 kcal/mol | 3.15 ± 0.13 kcal/mol
14 | SKVIYVPPGATVEEILAAIKANKGKTVTIVMSREELERLKKALEEAGYEVEEVKVFEEEPYVVVKIKVKPSA [r9_1138_TrROS_Hall] | 3.84 ± 0.18 kcal/mol | 3.72 ± 0.12 kcal/mol | 4 ± 0.17 kcal/mol
15 | SAGGREITIMIWMPLEDMEEFANEIANALAAEGYKVKDIEIQFKVIPDPENGRPWVMFMIEVEIEPPSAGGS [r8_475_TrROS] | 4.27 ± 0.1 kcal/mol | 4.717 ± 0.044 kcal/mol | 2.96 ± 0.19 kcal/mol
16 | SAGGGFDIITITFGGIPITLTLEGEEEVKKFIEELPKLGIKTEILEKEKKIGPDGKPYVEVKVKAIPSAGGS [r8_336_JUSTAS] | 1.19 ± 0.16 kcal/mol | 1.43 ± 0.14 kcal/mol | 0.299 ± 0.13 kcal/mol
17 | SAGKVEIKEVSVDPNTDEVKVTFKNPNVPPGTKIVVYPKDGKPIEFETEPNKEVTLTLPKDVEKIEFEGSAG [r14_671_TrMRF] | 0.0919 ± 0.15 kcal/mol | 0.381 ± 0.14 kcal/mol | -0.298 ± 0.13 kcal/mol
18 | SAGGSAGGSPNPKVVPFTFPVVIPDEDGHPYLVNVTVTAIPDTDTYYARITYPDGRVEDFVLASAGGSAGGS [r12_286_TrMRF] | 2.33 ± 0.04 kcal/mol | 2.494 ± 0.015 kcal/mol | 1.94 ± 0.049 kcal/mol
19 | SAGMSADIPVDPVTGTLTITVTDAFNPDKSTTTTVPLSELEAELGRPLTLEEVAARVEAAGVATVTVGPSAG [r14_809_JUSTAS] | 0.82 ± 0.056 kcal/mol | -0.0285 ± 0.085 kcal/mol | 1.46 ± 0.051 kcal/mol
20 | SAGGSAGGSSKTFKDPDGWTITVEPLDGGVKVEIYWPDGQRQEHLIPPGEPIKIDPNGWYIEISAGGSAGGS [r12_281_TrROS] | 1.69 ± 0.19 kcal/mol | 2.11 ± 0.061 kcal/mol | 0.5 ± 0.069 kcal/mol
21 | SAGGSAGGSEKPVLIVKVKVKNPKTKKWEEKTIEVPEGVKTPEEVAKALEKEFGDVVKVEILPSAGGSAGGS [r12_942_TrROS_Hall] | 1.63 ± 0.19 kcal/mol | 1.86 ± 0.11 kcal/mol | 1.25 ± 0.064 kcal/mol
